Experimental data: the supplement of paper PMC7877785
± gives the uncertainty stated by the source.

Experiment: self-splicing fitness, log relative to wild type (ln ratio); higher = more splicing; Tetrahymena group I intron in knt gene, E. coli kanamycin selection, DiMSum; sequences stand for … in CUCUCU…GGAGGGAAAAGUUAUCAGGCAUGCACCUGGUAGCUAGUCUUUAAACCAAUAGAUUGCAUCGGUUUAAAAGGCAAGACCGUCAAAUUGCGGGAAAGGGGUCAACAGCCGUUCAGUACCAAGUCUCAGGGGAAACUUUGAGAUGGCCUUGCAAAGGGUAUGGUAAUAAGCUGACGGACAUGGUCCUAACCACGCAGCCAAGUCCUAAGUCAACAGAUCUUCUGUUGAUAUGGAUGCAGUUCACAGACUAAAUGUCGGUCGGGGAAGAUGUAUUCUUCUCAUAAGAUAUAGUCGGACCUCUCCUUAAUGGGAGCUAGCGGAUGAAGUGAUGCAACACUGGAGCCGCUGGGAACUAAUUUGUAUGCGAAAGUAUAUUGAUUAGUUUUGGAGUACUCGUGGUCG
Procedure, shortened: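 Fitness was computed with DiMSum as the error-weighted combination of replicate fold changes, kanamycin versus none, each normalised to wild type. The library randomised all eight intron nucleotides of the P1ex region, with the intron placed in the knt kanamycin-resistance gene on pET-22b(+) in E. coli BL21(DE3). Six replicate transformations were grown overnight at 37°C or 30°C on LB agar with or without 25 μg/mL kanamycin, plus 100 μg/mL carbenicillin, 50 μM IPTG and 0.2% rhamnose. Pooled colonies were amplicon-sequenced on an Illumina HiSeq 2500.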

Row | Sequence | self-splicing fitness (ln) (30 °C) | self-splicing fitness (ln) (37 °C)
1 | CUUUAGCAAUAUUACGCCCA | -2.92 ± 0.48 | -1.54 ± 0.38
2 | GAGUAGCAAUAUUACGGGUA | -2.78 ± 0.35 | -2.54 ± 0.26
3 | CACGAGCAAUAUUACGUUAU | -3.4 ± 0.19 | -3.62 ± 0.31
4 | AAACAGCAAUAUUACGAGGU | -4.6 ± 0.26 | -2.53 ± 0.15
5 | CAACAGCAAUAUUACGCAUC | -3.3 ± 0.16 | -2.29 ± 0.14
6 | AGGUAGCAAUAUUACGACGG | -2.04 ± 0.02 | -1.31 ± 0.037
7 | GGGAAGCAAUAUUACGCGAC | -2.77 ± 0.37 | -1.5 ± 0.32
8 | CCGUAGCAAUAUUACGCUUG | -1.48 ± 0.069 | -0.347 ± 0.075
9 | AAACAGCAAUAUUACGCCUU | -1.66 ± 0.093 | -0.238 ± 0.1
10 | GAAGAGCAAUAUUACGUACG | -3.52 ± 0.25 | -2.15 ± 0.22
11 | AAAGAGCAAUAUUACGAUUG | -4.1 ± 0.24 | -2.29 ± 0.21
12 | UCCCAGCAAUAUUACGAAGU | -2.04 ± 0.1 | -1.14 ± 0.11
13 | AUUUAGCAAUAUUACGGAGU | -2.92 ± 0.27 | -2.29 ± 0.27
14 | CCCAAGCAAUAUUACGCGCG | -3.78 ± 0.23 | -2.24 ± 0.21
15 | GGCCAGCAAUAUUACGCAUG | -2.27 ± 0.12 | -1.3 ± 0.14
16 | GAGUAGCAAUAUUACGUUGA | -2.27 ± 0.27 | -2.76 ± 0.36
17 | UCUCAGCAAUAUUACGCUAA | -3.89 ± 0.33 | -2.23 ± 0.25
18 | GAGCAGCAAUAUUACGACUU | -0.557 ± 0.11 | -0.841 ± 0.14
19 | CGGGAGCAAUAUUACGCAGA | -3.67 ± 0.48 | -2.01 ± 0.29
20 | UCUAAGCAAUAUUACGCUAU | -3.62 ± 0.31 | -3.37 ± 0.28
21 | UUUCAGCAAUAUUACGAUUA | 0.327 ± 0.096 | 0.0465 ± 0.088
22 | CCACAGCAAUAUUACGCUGA | -2.51 ± 0.12 | -3.16 ± 0.24
23 | ACCAAGCAAUAUUACGCGCA | -0.525 ± 0.054 | -0.106 ± 0.07
24 | UCGCAGCAAUAUUACGCUUU | -3.69 ± 0.18 | -1.84 ± 0.13
25 | ACAUAGCAAUAUUACGUCCC | -1.71 ± 0.15 | -0.222 ± 0.23
26 | UCCAAGCAAUAUUACGAACG | -2.64 ± 0.15 | -1.62 ± 0.23

Row | Sequence | self-splicing fitness (ln) (30 °C) | self-splicing fitness (ln) (37 °C)
27 | UCUUAGCAAUAUUACGCCUU |  | -1.86 ± 0.3
28 | AAGGAGCAAUAUUACGCUGG | -2.18 ± 0.24 | -2.24 ± 0.31
29 | CACCAGCAAUAUUACGUAGU | -3.23 ± 0.075 | -1.53 ± 0.079
30 | ACUGAGCAAUAUUACGCGCA | -3.04 ± 0.42 | -1.66 ± 0.36
31 | UGAGAGCAAUAUUACGAAUG | -2.97 ± 0.36 | -1.09 ± 0.46
32 | AAAUAGCAAUAUUACGGACG | -0.725 ± 0.069 | -0.343 ± 0.096
33 | UCCUAGCAAUAUUACGUGAU | -3.3 ± 0.28 | -1.9 ± 0.24
34 | CGGAAGCAAUAUUACGCACU | -2.24 ± 0.13 | -0.396 ± 0.11
35 | UUACAGCAAUAUUACGCAGG | -1.79 ± 0.14 | -1.44 ± 0.14
36 | ACGGAGCAAUAUUACGCUGA | -1.48 ± 0.17 | -1.9 ± 0.21
37 | ACGUAGCAAUAUUACGUGAC | -2.84 ± 0.14 | -2.94 ± 0.22
38 | GAUUAGCAAUAUUACGGUGG | -2.89 ± 0.2 | -2.88 ± 0.2
39 | AUUCAGCAAUAUUACGGACC | -0.601 ± 0.1 | 0.355 ± 0.15
40 | GCCGAGCAAUAUUACGGACC | -2.47 ± 0.35 | -1.51 ± 0.39
41 | CCAAAGCAAUAUUACGACCG | -0.022 ± 0.096 | -0.0691 ± 0.14
42 | GGCUAGCAAUAUUACGUUUA | -0.381 ± 0.15 | -0.882 ± 0.16
43 | AUGUAGCAAUAUUACGUGAU | -1.52 ± 0.082 | -0.75 ± 0.11
44 | CGAAAGCAAUAUUACGCAGU | -3.8 ± 0.22 | -2.69 ± 0.17
45 | UAGCAGCAAUAUUACGUUGU | -3.72 ± 0.21 | -3.08 ± 0.26
46 | GGCAAGCAAUAUUACGAAUU | -0.859 ± 0.074 | 0.0425 ± 0.081
47 | UCAAAGCAAUAUUACGAUCC | -3.21 ± 0.3 | -2.34 ± 0.4
48 | GCGCAGCAAUAUUACGUUAU | -0.78 ± 0.048 | -0.0311 ± 0.064
49 | CCGGAGCAAUAUUACGAAGA | -3.63 ± 0.23 | -1.97 ± 0.16
50 | ACCAAGCAAUAUUACGCCGA | -2.23 ± 0.15 | -1.81 ± 0.16
51 | GAUUAGCAAUAUUACGAAUA | -1.1 ± 0.29 | -0.71 ± 0.26
52 | CGUAAGCAAUAUUACGCGGC | -2.84 ± 0.25 | -2.23 ± 0.3

Row | Sequence | self-splicing fitness (ln) (30 °C) | self-splicing fitness (ln) (37 °C)
53 | UAUUAGCAAUAUUACGACUU | -0.468 ± 0.13 | -0.537 ± 0.14
54 | ACAGAGCAAUAUUACGUUAU | -3.59 ± 0.19 | -3 ± 0.25
55 | GUACAGCAAUAUUACGAGGG | -3.21 ± 0.17 | -2.42 ± 0.2
56 | UGCCAGCAAUAUUACGCACU | -2.03 ± 0.069 | -0.315 ± 0.066
57 | UAAGAGCAAUAUUACGGGUA | -2.57 ± 0.2 | -1.59 ± 0.17
58 | AGUGAGCAAUAUUACGCUGG |  | -2.84 ± 0.41
59 | GUGCAGCAAUAUUACGUAUU | -1.7 ± 0.1 | -1.78 ± 0.12
60 | GUACAGCAAUAUUACGUGAU | -2.88 ± 0.07 | -0.556 ± 0.07
61 | GUUGAGCAAUAUUACGGCUG | -1.41 ± 0.11 | -0.467 ± 0.14
62 | CGUUAGCAAUAUUACGCAAC | -2.61 ± 0.49 | -2.01 ± 0.35
63 | CCGUAGCAAUAUUACGUGAA | -3.73 ± 0.18 | -2.34 ± 0.18
64 | GUACAGCAAUAUUACGUGAC | -2.8 ± 0.18 | -0.577 ± 0.16
65 | CUCGAGCAAUAUUACGAUCA | -2.04 ± 0.4 | 
66 | CUUUAGCAAUAUUACGAUAA | -2.76 ± 0.15 | -2.64 ± 0.28
67 | UUUGAGCAAUAUUACGGACG | -2.51 ± 0.24 | -2.71 ± 0.31
68 | UAUAAGCAAUAUUACGUACG | -0.621 ± 0.13 | -0.0322 ± 0.15
69 | GGUUAGCAAUAUUACGAUAU | -0.423 ± 0.1 | -0.137 ± 0.13
70 | CCCAAGCAAUAUUACGUAGC | -2.5 ± 0.42 | -2.74 ± 0.39
71 | CAGGAGCAAUAUUACGCCCA | -2.13 ± 0.38 | -1.18 ± 0.27
72 | GGUUAGCAAUAUUACGAGCU | -2.61 ± 0.29 | -1.69 ± 0.32
73 | UGGAAGCAAUAUUACGGUAU | -3.09 ± 0.38 | 
74 | ACGUAGCAAUAUUACGGCAU | -1.31 ± 0.1 | -0.11 ± 0.099
75 | CAUUAGCAAUAUUACGUUGC | -3.96 ± 0.19 | -2.8 ± 0.19
76 | UGAGAGCAAUAUUACGCUGG | -3.87 ± 0.22 | -2.67 ± 0.25
